In patent US5853721A, “Antibody to interleukin-12 receptor” (Hoffmann-La Roche Inc., priority 1995, dated 1998):

How the values were obtained:
[1] = target: T1, detergent solubilized IL-12R from Kit 225/K6 cells (Homo sapiens, UniProt P42701); assay: 125I-IL-12 binding to detergent solubilized IL-12R immunoprecipitated by immobilized 2*4E6; settings: proteins immunoprecipitated by immobilized 2*4E6 from solubilized K6 cell extracts; read-out: apparent affinity of 125I-IL-12, single site
T1 construct: were solubilized with 8 mM CHAPS extraction buffer; endogenous in cells; host or cells: Kit 225/K6 cells, CHAPS extract
Procedure: FIG. 8A: Kit 225/K6 cells (1.5×10^8 cells/ml) were solubilized with 8 mM CHAPS extraction buffer and the cell extract (0.2 ml) was immunoprecipitated for 16 hrs at 4° C. with mAb 2*4E6 immobilized on goat anti-mouse IgG coupled to agarose as discussed below. Following this incubation, the beads were pelleted, washed and resuspended in IP buffer containing ^125 I-IL-12 at concentrations ranging from 7 pM to […]. The IL-12R immobilized on the 2*4E6 coated beads was incubated with ^125 I-IL-12 for 2 hrs at RT and IL-12R bound radioactivity was determined in the presence of 50 nM unlabelled IL-12.
To confirm that the antibodies identified by the immunoprecipitation assay were specific for IL-12R, an immunoprecipitation/soluble IL-12R binding assay was developed. […] Following this incubation, the beads were pelleted, washed twice with IP buffer and the bound radioactivity determined in a gamma counter. Nonspecific binding was determined by inclusion of 70 nM unlabeled human IL-12 in the assay. Solubilized IL-12R binding data were analyzed according to the method of Scatchard, (Assn. N.Y. Acad. Sci., 51, 660 (1949)) by using the nonlinear regression programs EBDA and Ligand as adapted for the IBM PC by McPherson, from Elsevier-BIOSOFT.

IL-12R [2] = target: T2, IL-12R (Homo sapiens, UniProt P42701); assay: Steady state 125I-IL-12 binding to human cells (Scatchard); parameters: human cells that naturally express IL-12R; endogenous in cells; receptor-negative PBMC, MRC-5, HL-60; settings: PHA-activated PBMCs, Kit-225 and Kit 225/K6 cells; third (low affinity) site
IL-12R [3] = target: T2, IL-12R; assay: Inhibition of 125I-2*4E6 binding to cells by unlabeled competitor; parameters: endogenous in cells; host or cells: Kit 225/K6 cells; settings: PHA-activated PBMCs (FIG. 6)
Text: The data are expressed as the amount of ^125 I-2*4E6 bound [CPM BOUND (Percent)] to the cells in the presence of the indicated concentrations of unlabeled antibody or IL-12 when compared with the total specific binding in the absence of unlabeled competitor.

[4] = target: T3, human recombinant IL-12 receptor β subunit (Homo sapiens, UniProt P42701); assay: Equilibrium binding of 125I-IL-12 and 125I-2*4E6 to recombinant IL-12R expressed in COS cells
T3 construct: expressed in transfected cells; host or cells: COS / COS-7 cells
Procedure: COS cells (4-5×10^7) were transfected by electroporation with 25 μg of plasmid DNA expressing recombinant human IL-12R (Chua, et al., J. Immunol., 153:128 (1994)) in a BioRad Gene Pulser (250 μF, 250 volts) according to the manufacturer's protocol. The cells were plated in a 600 cm^2 culture plate, harvested after 72 hours by scraping, washed and resuspended in binding buffer. Transfected cells (8×10^4) were incubated with increasing concentrations of ^125 I-labeled 2*4E6 or IL-12 at room temperature for 2 hrs. Cell bound radioactivity was separated from free ^125 I-labeled 2*4E6 or IL-12 as described above.

IL-12 receptor = assay: Steady state 125I-IL-12 binding to human cells (Scatchard)

In the case of “IL-12: 75-kDa heterodimeric cytokine of disulfide-bonded 40-kDa and 35-kDa subunits”, the Kd [1] is reported as 0.188 nM, the Kd (IL-12R [2]) is reported as 2 to 6 nM and the “block of 125I-2*4E6 binding by unlabeled competitor” value (IL-12R [3]) is reported as “does not block”. The Kd ([4]; rIL-12R β-expressing COS cells, read-out: apparent affinity of 125I-IL-12, single binding site) was 2 to 6 nM, the 125I-IL-12 sites/cell ([4]; rIL-12R-expressing COS cells) was “approximately 150,000 sites/cell” and the “IL-12 BINDING (KD, Sites/cell)” value (IL-12 receptor; HL-60) was “none detectable”. For the same substance, the “IL-12 BINDING (KD, Sites/cell)” value (IL-12 receptor; MRC-5) was “none detectable”, the “IL-12 BINDING (KD, Sites/cell)” value (IL-12 receptor; RAJI cells) was “none detectable” and the Kd (IL-12 receptor; YT cells, 2 sites) was 0.109 nM. The “IL-12 BINDING (KD, Sites/cell)” value (IL-12 receptor; non-activated human PBMC) was “none detected”.
